Measurements published in publication doi:10.1101/2023.11.29.569239.

How the values were obtained:
[1] = biological target: T1, MBP-DDX3Y full-length (UniProt O15523 1-660); experiment: EMSA
[2] = biological target: T2, MBP-DDX3X full-length (UniProt O00571 1-662); experiment: EMSA
[3] = biological target: MBP-ΔΔ DDX3X (UniProt O00571 132-607); experiment: EMSA
[4] = biological target: MBP-ΔΔ DDX3Y (UniProt O15523 130-605); experiment: EMSA
[5] = biological target: T1, MBP-DDX3Y full-length; experiment: single-particle FRET
[6] = biological target: T2, MBP-DDX3X full-length; experiment: single-particle FRET

T2 sequence (O00571 whole entry): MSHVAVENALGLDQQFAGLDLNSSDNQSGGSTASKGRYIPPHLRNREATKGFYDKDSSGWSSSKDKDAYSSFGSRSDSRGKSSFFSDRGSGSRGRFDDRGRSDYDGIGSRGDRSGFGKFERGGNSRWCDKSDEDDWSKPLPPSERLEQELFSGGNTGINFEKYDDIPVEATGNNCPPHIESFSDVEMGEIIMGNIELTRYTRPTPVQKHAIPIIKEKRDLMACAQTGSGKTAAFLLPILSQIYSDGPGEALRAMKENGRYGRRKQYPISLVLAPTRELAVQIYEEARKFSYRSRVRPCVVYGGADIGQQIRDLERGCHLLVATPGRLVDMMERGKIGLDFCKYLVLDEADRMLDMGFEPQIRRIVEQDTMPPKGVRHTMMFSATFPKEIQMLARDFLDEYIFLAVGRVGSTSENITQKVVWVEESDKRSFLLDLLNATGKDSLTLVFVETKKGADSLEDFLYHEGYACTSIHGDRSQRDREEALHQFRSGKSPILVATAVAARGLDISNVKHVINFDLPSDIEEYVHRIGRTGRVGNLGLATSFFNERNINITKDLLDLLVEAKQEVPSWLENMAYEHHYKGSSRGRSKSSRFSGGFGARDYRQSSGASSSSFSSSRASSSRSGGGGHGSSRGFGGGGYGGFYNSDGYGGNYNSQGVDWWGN
T1 sequence (O15523 whole entry): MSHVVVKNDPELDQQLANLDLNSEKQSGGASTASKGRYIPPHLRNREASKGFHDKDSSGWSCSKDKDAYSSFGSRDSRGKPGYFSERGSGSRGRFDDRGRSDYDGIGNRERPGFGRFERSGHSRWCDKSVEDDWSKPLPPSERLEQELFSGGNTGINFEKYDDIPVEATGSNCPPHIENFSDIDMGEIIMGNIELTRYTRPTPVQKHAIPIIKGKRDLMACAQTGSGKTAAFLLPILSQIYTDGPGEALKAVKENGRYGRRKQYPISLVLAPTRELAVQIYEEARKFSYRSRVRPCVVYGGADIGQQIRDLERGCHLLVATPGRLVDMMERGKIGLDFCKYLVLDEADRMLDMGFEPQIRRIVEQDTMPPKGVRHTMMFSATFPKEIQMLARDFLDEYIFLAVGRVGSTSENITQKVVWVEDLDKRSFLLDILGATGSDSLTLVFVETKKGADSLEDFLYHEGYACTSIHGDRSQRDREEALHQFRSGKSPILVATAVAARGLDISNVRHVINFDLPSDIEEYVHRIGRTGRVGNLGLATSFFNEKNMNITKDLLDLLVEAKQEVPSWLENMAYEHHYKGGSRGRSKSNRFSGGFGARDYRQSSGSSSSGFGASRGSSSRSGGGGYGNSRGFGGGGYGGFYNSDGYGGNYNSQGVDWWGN
MBP-ΔΔ DDX3X, sequence (O00571 132-607, stated change not applied): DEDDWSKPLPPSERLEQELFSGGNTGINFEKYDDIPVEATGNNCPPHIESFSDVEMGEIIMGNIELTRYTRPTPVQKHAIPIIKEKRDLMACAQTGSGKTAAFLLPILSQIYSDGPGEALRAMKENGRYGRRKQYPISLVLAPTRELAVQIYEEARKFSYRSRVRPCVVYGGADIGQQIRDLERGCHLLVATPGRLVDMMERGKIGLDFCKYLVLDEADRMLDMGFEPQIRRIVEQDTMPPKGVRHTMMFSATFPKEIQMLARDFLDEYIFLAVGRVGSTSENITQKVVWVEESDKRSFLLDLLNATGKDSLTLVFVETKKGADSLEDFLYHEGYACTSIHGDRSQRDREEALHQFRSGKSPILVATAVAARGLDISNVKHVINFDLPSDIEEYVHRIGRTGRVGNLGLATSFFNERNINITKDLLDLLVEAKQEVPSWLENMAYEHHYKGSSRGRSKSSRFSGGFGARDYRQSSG
MBP-ΔΔ DDX3Y, sequence (O15523 130-605, stated change not applied): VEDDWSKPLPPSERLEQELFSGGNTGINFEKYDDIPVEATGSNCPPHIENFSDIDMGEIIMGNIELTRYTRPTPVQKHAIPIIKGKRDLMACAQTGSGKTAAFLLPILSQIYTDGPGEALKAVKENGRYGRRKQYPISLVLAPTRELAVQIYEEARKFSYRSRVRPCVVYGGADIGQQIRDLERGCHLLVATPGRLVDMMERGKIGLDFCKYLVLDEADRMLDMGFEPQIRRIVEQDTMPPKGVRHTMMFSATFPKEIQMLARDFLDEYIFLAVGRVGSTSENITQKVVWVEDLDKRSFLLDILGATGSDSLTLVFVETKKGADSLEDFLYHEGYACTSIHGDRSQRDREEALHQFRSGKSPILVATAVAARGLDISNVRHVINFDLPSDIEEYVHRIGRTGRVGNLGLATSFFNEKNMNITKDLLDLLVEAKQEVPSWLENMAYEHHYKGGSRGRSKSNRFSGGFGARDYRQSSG

B1: dsRNA I (18-mer/42-mer) (dsRNA)
RNA 1: ACCGCUGCCGUCGCUCCG
RNA 2: UUUUUUUUUUUUUUUUUUUUUUUUCGGAGCGACGGCAGCGGU
**Q.** Which Kd [1] does the source give for B1 here?
**A.** Its Kd is 884 nM.

**Q.** What about the Kd [2] of the same binder?
**A.** Its Kd is 519 nM.

**Q.** And the binding signal [3]?
**A.** The binding signal was > 3 fold Kd increase vs full-length.

**Q.** What about the binding signal [4] of the same binder?
**A.** Its binding signal is > 3 fold Kd increase vs full-length.

**Q.** And the “apparent K (half saturation)” value [5]?
**A.** Its value is 3.7 ± 3 µM.

**Q.** What about the “apparent K (half saturation)” value [6] of the same binder?
**A.** The value was 4.1 ± 2 µM.
